Data set [1] can be described thus: Optimum pH in catalytic reaction (deamination of meso-diaminopimelic acid). The format is biochemical, Thermosyntropha lipolytica. The following applies: NADP^+, 50° C. As to the method:
The optimum pH was evaluated for the D-type amino acid dehydrogenase obtained in Example 2. The activity of the enzyme was measured by determining an increase in absorbance at wavelength of 340 nm of NADPH produced by the enzymatic catalytic reaction.
The absorbance was measured by an ultraviolet-visible spectrophotometer UV-1800 (available from SHIMADZU). The specific activity of the enzyme was calculated from the concentration of the enzyme used and enzyme dilution rate using the obtained absorbance change and the following equation.

Data set [2] can be described thus: Thermal stability of the enzyme (residual activity after heat treatment). The format is physicochemical, Thermosyntropha lipolytica. The following applies: 70° C., 30 minutes, 10 mM phosphate buffer pH 7.2; activity at 50° C. as 100%. As to the method: The D-type amino acid dehydrogenase purified in Example 2 was heat-treated for 30 minutes under various temperature conditions (50, 55, 60, 65, or 70° C.) in 10 mM phosphate buffer solution (pH 7.2), and the residual activity after standing for 5 minutes in ice was confirmed. […] The residual activity after treatment at other temperatures was calculated as a relative activity, with the activity at 50° C. as 100%.

Data set [3] is described as follows: pH stability of the enzyme (residual activity after treatment in buffers). The format is physicochemical, Thermosyntropha lipolytica. The following applies: pH 5.0 to 9.5, 50° C. for 30 minutes, 100 mM buffer; activity at pH 9.0 as 100%. As to the method:
The D-type amino acid dehydrogenase purified in Example 2 was heat-treated at 50° C. for 30 minutes in each 100 mM buffer solution (pH 1.5, 2.0, 2.5, 3.0, 3.5, 4.0, 4.5, 5.0, 5.5, 6.0, 6.5, 7.0, 7.5, 8.0, 8.5, 9.0, 9.5, 10.0, 10.5, 11.0, or 11.3), and the residual activity after standing for 5 minutes in ice was confirmed. […] The activity in the treatment at pH 9.0 was defined as 100%, and the residual activity after the treatment at other pH was calculated as the relative activity.

Data set [4] in a line: Optimum temperature in catalytic reaction. Particulars: meso-diaminopimelic acid as substrate, NADP^+. The format is biochemical, Thermosyntropha lipolytica. The source says: The measurement results are illustrated in FIG. 6.
Data set [5] can be described thus: Activity-staining with D-alanine or L-alanine as substrate. Particulars: 10 mM D-alanine or L-alanine, 1.25 mM NADP^+, pH 8.0, 50° C., 30 minutes. The format is biochemical, Thermosyntropha lipolytica. As to the method:
The activity was evaluated for the D-type amino acid dehydrogenase obtained in Example 2 above. The activity of the enzyme was evaluated by an activity-staining method due to a catalytic reaction of the enzyme. More specifically, an appropriate amount of enzyme solution was subjected to disc gel electrophoresis. […] The 2-(4-iodophenyl)-3-(4-nitrophenyl)-5-phenyl-2H-tetrazolium chloride in the reaction solution is reduced to form a […] formazan. A reaction formula is indicated below. In the following reaction formula, the D-type amino acid dehydrogenase is referred to as “meso-DAPDH”.

B1: D-type amino acid dehydrogenase: D-type amino acid dehydrogenase derived from Thermosyntropha lipolytica, amino acid sequence SEQ ID NO: 2, hexamer (protein, listed as Thermosyntropha lipolytica)
chain: MGEKIRVAIVGYGNIGRYALDAIKAAPDMELAGVVRRSSSLGDKPAELADVPVVGSIKELTGVKVALLCTPTRSVPEYAREILALGINTVDSYDIHGQLADLRLELDKVAKEHNAVAVISAGWDPGTDSMVRCMFEFMAPKGITYTNFGPGMSMGHSVAVKAVKGVKNALSMTIPLGTGVHRRMVYVELEPGADFAQVEKAVKTDPYFVKDETHVIQVEDVDALIDMGHGVLMERKGVSGGTHNQLLSFSMRINNPALTAQIMVASARASVKQKPGAYTMIQIPIIDYMYGDPDEIIRQLV
modifications: hexamer
Regarding B1, the “optimum pH for activity” value in data set [1] amounted to 10.5. In addition, in data set [2], the “residual activity after heat treatment” value is on record as “about 74%”. Also, in data set [3], the “residual activity after pH treatment” value is listed as at least 90%. For the same molecule, the “optimum temperature for activity” value in data set [4] is “about 55 °C”. Besides, the “stereoselectivity for substrate (activity-staining)” value in data set [5] is listed as “selectively acts on the D-amino acid”.
